Measurements published in US8158376B2, “Bisubstrate fluorescent probe binding to protein kinases” (University of Tartu, priority 2006, dated 2012).
Like-named read-outs stand apart in the source and are kept apart here.

Key:
Assay in all cases: Kinase selectivity panel
Assay type in all cases: biochemical
PLK1 = PLK1 (Homo sapiens, UniProt P53350); conditions: read-out: residual activity (%) PLK1
Procedure: (§1) The panel of kinases included all 52 kinases available for testing.
(§2) The assay of protein kinases was performed at 30° C. as described previously [Davies et al., Biochem. J. 351 (2000) 95; Murray et al., Biochem. J. 384 (2004) 477].

eEF2K = target: T1, eEF2K (Homo sapiens, UniProt O00418); conditions: read-out: residual activity (%) eEF2K
T1 sequence (O00418 1-725): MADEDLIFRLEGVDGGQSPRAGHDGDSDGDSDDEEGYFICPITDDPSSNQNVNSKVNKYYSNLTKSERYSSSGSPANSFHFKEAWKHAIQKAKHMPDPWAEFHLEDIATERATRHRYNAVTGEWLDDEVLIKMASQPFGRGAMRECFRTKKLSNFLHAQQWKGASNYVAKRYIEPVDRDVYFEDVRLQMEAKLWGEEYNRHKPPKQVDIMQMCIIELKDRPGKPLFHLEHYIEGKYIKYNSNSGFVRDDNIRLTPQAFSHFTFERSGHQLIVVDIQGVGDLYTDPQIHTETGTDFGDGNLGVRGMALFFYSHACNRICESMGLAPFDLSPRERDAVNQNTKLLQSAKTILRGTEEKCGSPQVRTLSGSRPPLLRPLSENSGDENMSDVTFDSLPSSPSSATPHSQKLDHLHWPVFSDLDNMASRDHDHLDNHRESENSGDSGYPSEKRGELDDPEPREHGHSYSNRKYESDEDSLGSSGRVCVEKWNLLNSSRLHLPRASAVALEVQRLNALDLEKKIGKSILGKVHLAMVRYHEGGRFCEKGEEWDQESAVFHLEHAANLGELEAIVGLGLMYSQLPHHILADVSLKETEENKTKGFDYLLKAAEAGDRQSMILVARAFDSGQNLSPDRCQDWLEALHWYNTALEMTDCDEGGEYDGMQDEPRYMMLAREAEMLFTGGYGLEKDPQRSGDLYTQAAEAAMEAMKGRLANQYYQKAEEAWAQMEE
Procedure: as §1, §2

MAPKAP-K3 = MAPKAP-K3 (Homo sapiens, UniProt Q16644); conditions: read-out: residual activity (%) MAPKAP-K3
Procedure: as §1, §2

PKBb = PKBb (Homo sapiens, UniProt P31751); conditions: read-out: residual activity (%) PKBb
Procedure: as §1, §2

CK2 = CK2 (Homo sapiens, UniProt P68400); conditions: read-out: residual activity (%) CK2
Procedure: as §1, §2

CHK1 = target: T2, CHK1 (Homo sapiens, UniProt O14757); conditions: read-out: residual activity (%) CHK1
T2 sequence (O14757 1-476): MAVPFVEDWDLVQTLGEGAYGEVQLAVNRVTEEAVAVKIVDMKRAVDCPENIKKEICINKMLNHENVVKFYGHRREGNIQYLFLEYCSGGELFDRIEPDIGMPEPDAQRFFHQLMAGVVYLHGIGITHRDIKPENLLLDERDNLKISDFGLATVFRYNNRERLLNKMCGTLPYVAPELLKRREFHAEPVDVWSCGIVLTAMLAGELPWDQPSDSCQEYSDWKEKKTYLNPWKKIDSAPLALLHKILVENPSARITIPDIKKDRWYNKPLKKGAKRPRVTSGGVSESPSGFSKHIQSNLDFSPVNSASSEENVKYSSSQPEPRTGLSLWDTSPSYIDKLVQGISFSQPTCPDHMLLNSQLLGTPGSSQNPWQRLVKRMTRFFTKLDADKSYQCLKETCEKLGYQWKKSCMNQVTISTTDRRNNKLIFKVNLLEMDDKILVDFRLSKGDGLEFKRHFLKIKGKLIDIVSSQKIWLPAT
Procedure: as §1, §2

Lck = Lck (Homo sapiens, UniProt P06239); conditions: read-out: residual activity (%) Lck
Procedure: as §1, §2

PRAK = target: T3, PRAK (Homo sapiens, UniProt Q8IW41); conditions: read-out: residual activity (%) PRAK
T3 sequence (Q8IW41 1-473): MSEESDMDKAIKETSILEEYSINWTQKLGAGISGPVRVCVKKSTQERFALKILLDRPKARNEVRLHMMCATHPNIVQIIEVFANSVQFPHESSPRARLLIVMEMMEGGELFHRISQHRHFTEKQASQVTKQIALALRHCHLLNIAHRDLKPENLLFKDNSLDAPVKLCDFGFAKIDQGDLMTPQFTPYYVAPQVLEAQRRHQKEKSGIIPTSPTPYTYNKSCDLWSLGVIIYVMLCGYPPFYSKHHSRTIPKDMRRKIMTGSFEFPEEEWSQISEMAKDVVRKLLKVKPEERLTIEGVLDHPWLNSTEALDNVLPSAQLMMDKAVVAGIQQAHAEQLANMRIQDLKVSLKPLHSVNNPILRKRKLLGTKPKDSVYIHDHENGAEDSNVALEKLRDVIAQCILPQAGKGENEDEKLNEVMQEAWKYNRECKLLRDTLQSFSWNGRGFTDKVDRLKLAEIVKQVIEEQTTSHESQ
Procedure: as §1, §2

MAPKAP-K2 = MAPKAP-K2 (Homo sapiens, UniProt P49137); conditions: read-out: residual activity (%) MAPKAP-K2
Procedure: as §1, §2

CAMK-1 = CAMK-1 (Homo sapiens, UniProt Q14012); conditions: read-out: residual activity (%) CAMK-1
Procedure: as §1, §2

SRPK1 = SRPK1 (Homo sapiens, UniProt Q96SB4); conditions: read-out: residual activity (%) SRPK1
Procedure: as §1, §2

Chain of PKBb (P31751 whole entry): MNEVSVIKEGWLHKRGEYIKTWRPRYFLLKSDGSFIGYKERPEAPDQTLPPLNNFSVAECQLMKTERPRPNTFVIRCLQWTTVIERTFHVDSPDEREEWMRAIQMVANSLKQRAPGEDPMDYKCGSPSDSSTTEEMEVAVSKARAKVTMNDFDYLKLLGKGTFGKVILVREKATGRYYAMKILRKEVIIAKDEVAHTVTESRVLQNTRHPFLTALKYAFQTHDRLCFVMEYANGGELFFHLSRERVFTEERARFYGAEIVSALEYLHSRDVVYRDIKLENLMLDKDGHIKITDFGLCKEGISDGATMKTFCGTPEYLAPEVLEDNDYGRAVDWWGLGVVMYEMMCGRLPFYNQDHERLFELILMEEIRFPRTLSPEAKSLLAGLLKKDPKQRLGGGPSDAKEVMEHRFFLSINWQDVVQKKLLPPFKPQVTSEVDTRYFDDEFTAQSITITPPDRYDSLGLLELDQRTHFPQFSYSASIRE
Chain of MAPKAP-K2 (P49137 whole entry, species assumed): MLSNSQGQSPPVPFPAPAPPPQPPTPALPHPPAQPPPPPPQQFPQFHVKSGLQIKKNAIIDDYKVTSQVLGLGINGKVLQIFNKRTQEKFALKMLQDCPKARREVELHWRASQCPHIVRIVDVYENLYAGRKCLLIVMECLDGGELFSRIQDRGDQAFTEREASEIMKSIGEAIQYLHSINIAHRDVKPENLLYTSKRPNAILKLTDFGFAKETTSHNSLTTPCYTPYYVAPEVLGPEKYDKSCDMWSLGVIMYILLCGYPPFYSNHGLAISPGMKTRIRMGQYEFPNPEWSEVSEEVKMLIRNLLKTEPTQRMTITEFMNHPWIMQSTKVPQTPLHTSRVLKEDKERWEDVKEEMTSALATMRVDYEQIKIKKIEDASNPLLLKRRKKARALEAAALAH
Chain of Lck (P06239 whole entry, species assumed): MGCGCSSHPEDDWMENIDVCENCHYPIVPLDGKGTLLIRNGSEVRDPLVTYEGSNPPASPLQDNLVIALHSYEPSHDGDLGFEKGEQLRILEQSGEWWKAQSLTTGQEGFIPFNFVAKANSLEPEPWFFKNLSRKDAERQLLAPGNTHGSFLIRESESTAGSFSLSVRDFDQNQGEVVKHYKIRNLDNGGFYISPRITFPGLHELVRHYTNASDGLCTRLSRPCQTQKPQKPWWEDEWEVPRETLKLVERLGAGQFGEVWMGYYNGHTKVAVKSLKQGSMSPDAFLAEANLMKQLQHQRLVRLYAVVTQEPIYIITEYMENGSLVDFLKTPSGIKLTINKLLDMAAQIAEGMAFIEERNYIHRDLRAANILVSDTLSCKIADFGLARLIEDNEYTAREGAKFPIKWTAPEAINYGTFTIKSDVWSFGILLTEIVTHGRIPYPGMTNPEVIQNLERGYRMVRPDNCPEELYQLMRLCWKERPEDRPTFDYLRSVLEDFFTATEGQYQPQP
Chain of SRPK1 (Q96SB4 whole entry, species assumed): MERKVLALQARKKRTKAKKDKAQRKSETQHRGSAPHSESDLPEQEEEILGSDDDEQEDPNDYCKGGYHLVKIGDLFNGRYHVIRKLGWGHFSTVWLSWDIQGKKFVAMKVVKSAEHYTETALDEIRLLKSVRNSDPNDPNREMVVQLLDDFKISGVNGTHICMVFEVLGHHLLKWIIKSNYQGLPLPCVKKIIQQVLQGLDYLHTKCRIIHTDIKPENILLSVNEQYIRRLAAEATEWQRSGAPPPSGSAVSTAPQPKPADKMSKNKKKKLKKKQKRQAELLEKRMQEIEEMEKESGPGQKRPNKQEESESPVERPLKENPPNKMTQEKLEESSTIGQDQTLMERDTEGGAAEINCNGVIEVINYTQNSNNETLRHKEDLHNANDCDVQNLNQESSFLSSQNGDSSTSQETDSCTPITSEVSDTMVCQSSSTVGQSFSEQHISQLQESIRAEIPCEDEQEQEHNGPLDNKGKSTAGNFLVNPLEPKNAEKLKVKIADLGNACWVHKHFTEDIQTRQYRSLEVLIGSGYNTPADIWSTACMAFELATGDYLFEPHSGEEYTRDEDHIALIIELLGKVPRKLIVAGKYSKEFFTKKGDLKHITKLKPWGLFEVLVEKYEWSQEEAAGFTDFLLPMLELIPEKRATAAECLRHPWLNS
Chain of CK2 (P68400 whole entry): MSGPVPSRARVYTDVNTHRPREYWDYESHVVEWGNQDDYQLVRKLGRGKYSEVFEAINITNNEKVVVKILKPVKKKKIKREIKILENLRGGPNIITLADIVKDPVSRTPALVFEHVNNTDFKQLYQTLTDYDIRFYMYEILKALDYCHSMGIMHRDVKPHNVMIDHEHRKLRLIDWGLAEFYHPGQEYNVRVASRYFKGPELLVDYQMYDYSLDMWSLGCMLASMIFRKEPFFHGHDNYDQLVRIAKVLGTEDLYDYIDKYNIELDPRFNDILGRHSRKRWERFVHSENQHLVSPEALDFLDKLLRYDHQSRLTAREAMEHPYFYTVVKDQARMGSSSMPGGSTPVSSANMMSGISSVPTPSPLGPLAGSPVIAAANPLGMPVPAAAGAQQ
Chain of MAPKAP-K3 (Q16644 whole entry, species assumed): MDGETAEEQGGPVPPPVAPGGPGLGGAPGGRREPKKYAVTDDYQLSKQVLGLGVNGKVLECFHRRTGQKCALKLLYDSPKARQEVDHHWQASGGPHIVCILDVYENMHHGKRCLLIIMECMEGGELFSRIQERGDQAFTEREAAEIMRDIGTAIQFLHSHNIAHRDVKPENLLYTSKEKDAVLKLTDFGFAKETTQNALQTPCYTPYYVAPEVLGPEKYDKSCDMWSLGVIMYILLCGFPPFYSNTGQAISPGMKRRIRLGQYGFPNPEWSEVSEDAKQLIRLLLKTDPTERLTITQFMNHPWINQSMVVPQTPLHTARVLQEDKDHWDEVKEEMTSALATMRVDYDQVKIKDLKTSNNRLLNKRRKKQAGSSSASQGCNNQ
Chain of PLK1 (P53350 whole entry, species assumed): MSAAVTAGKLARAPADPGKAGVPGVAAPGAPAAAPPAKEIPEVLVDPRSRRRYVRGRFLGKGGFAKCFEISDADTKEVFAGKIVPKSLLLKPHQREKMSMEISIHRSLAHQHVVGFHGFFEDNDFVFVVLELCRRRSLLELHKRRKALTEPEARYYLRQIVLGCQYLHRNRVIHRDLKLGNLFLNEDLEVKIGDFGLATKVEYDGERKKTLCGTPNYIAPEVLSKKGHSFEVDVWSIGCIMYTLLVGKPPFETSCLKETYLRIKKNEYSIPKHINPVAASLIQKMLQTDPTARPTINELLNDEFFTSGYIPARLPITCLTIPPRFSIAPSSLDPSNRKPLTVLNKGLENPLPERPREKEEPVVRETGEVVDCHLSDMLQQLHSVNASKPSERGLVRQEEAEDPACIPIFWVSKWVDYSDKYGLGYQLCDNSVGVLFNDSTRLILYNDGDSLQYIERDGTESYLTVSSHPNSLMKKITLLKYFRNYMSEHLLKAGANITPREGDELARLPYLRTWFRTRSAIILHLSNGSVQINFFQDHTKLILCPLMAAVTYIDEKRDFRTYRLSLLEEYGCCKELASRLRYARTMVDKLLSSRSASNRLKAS

N=C(N)NCCC[C@@H](NC(=O)[C@@H](CCCNC(=N)N)NC(=O)[C@@H](CCCNC(=N)N)NC(=O)[C@@H](CCCNC(=N)N)NC(=O)[C@@H](CCCNC(=N)N)NC(=O)[C@@H](CCCNC(=N)N)NC(=O)CCCCCNC(=O)[C@H]1O[C@@H](n2cnc3c(N)ncnc32)[C@H](O)[C@@H]1O)C(N)=O [Compound 5, AdcAhx(D-Arg)6-NH2]
remaining activity at 1 µM (PLK1): 81%
remaining activity at 1 µM (eEF2K): 92%
remaining activity at 1 µM (MAPKAP-K3): 67%
remaining activity at 1 µM (PKBb): 3%
remaining activity at 1 µM (CK2): 104%
remaining activity at 1 µM (CHK1): 16%
remaining activity at 1 µM (Lck): 70%
remaining activity at 1 µM (PRAK): 89%
remaining activity at 1 µM (MAPKAP-K2): 85%
remaining activity at 1 µM (CAMK-1): 15%
remaining activity at 1 µM (SRPK1): 100%

N=C(N)NCCC[C@@H](NC(=O)[C@@H](CCCNC(=N)N)NC(=O)[C@@H](CCCNC(=N)N)NC(=O)[C@@H](CCCNC(=N)N)NC(=O)[C@@H](CCCNC(=N)N)NC(=O)[C@@H](CCCNC(=N)N)NC(=O)CCCCCNCCNS(=O)(=O)c1cccc2cnccc12)C(N)=O [Compound 26, H9-Hex(D-Arg)6-NH2]
remaining activity at 1 µM (PLK1; inhibitor 1 μM, ATP 5 μM): 76%
remaining activity at 1 µM (eEF2K; inhibitor 1 μM, ATP 5 μM): 91%
remaining activity at 1 µM (MAPKAP-K3; inhibitor 1 μM, ATP 20 μM): 69%
remaining activity at 1 µM (PKBb; inhibitor 1 μM, ATP 50 μM): 3%
remaining activity at 1 µM (CK2; inhibitor 1 μM, ATP 5 μM): 87%
remaining activity at 1 µM (CHK1; inhibitor 1 μM, ATP 20 μM): 31%
remaining activity at 1 µM (Lck; inhibitor 1 μM, ATP 50 μM): 88%
remaining activity at 1 µM (PRAK; inhibitor 1 μM, ATP 20 μM): 97%
remaining activity at 1 µM (MAPKAP-K2; inhibitor 1 μM, ATP 20 μM): 80%
remaining activity at 1 µM (CAMK-1; inhibitor 1 μM, ATP 50 μM): < 10%
remaining activity at 1 µM (SRPK1; inhibitor 1 μM, ATP 50 μM): 99%
